From patent US20070065446, “Anti-bambi antibody and diagnostic or remedy for colon cancer and liver cancer” (SCIMEDIA LTD., published 2007)

B1: TBE4 mutant (dsDNA)
DNA 1: CTGGAAATATAGAAAGCGGGCAGAAC
DNA 2: GTTCTGCCCGCTTTCTATATTTCCAG
B2: TBE3 mutant (dsDNA)
DNA 1: CTCTAAGTGTAGTTATATCTCTGAATG
DNA 2: CATTCAGAGATATAACTACACTTAGAG
B3: TBE1 mutant (dsDNA)
DNA 1: GCTGCAGAGGATTGATTAGCGGTAG
DNA 2: CTACCGCTAATCAATCCTCTGCAGC
B4: TBE2 mutant (dsDNA)
DNA 1: CTCTGTGTCTAGTTAAATGTATCTCTG
DNA 2: CAGAGATACATTTAACTAGACACAGAG
B5: TBE5 mutant (dsDNA)
DNA 1: CTAAAAGTTCATGCAGTTAAATTTGGG
DNA 2: CCCAAATTTAACTGCATGAACTTTTAG
B6: TBE5 (dsDNA)
DNA 1: CTAAAAGTTCATGCCTTTGAATTTGGG
DNA 2: CCCAAATTCAAAGGCATGAACTTTTAG
B7: TBE4 (dsDNA)
DNA 1: CTGGAAATATCAAAGGCGGGCAGAAC
DNA 2: GTTCTGCCCGCCTTTGATATTTCCAG
B8: TBE1 (dsDNA)
DNA 1: GCTGCAGAGGCTTTGTTAGCGGTAG
DNA 2: CTACCGCTAACAAAGCCTCTGCAGC
B9: TBE2 (dsDNA)
DNA 1: CTCTGTGTCTCTTTGAATGTATCTCTG
DNA 2: CAGAGATACATTCAAAGAGACACAGAG
B10: TBE3 (dsDNA)
DNA 1: CTCTAAGTGTCTTTGTATCTCTGAATG
DNA 2: CATTCAGAGATACAAAGACACTTAGAG

molecular target: T1, TCF4 (TCF7L2) residues 265-496, GST fusion (Homo sapiens, UniProt Q9NQB0-8 Q9NQB0-8:265-496); test: competition; mutant unlabeled competitor does not compete in EMSA; conditions: tags: N-terminal GST (pGEX-5X-1), E. coli DH5alpha
T1 sequence (Q9NQB0 288-519, one chain of several): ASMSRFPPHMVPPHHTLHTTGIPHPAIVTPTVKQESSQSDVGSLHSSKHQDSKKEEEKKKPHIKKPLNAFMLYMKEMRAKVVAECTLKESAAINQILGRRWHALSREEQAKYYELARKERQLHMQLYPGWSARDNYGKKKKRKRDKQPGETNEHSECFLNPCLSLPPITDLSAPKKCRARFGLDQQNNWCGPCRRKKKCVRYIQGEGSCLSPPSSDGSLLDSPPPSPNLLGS
Description: (§1) Five TCF-4 binding sequences on intron 1 were synthesized (TBE 1-5) and radioactively labeled, and shift assay was used to investigate whether they bound with GST-TCF.
The oligonucleotide used in preparing the mutant hBAMBI-luciferase construct was used as the mutant competitive molecule.

Row | Binder | binding result
1 | B1 | no binding
2 | B2 | no binding
3 | B3 | no binding
4 | B4 | no binding
5 | B5 | no binding

molecular target: T1, TCF4 (TCF7L2) residues 265-496, GST …; test: EMSA; competed by excess unlabeled TBE; conditions: tags: N-terminal GST (pGEX-5X-1), E. coli DH5alpha; label: radioactive
Description: as §1

Row | Binder | binding result
6 | B6 | binds
7 | B7 | binds
8 | B8 | binds
9 | B9 | binds
10 | B10 | binds

molecular target: GST (UniProt P08515 P08515:1-218); test: EMSA; GST control; conditions: tags: pGEX-5X-1 (Pharmacia), E. coli DH5alpha; label: radioactive
Sequence (P08515 whole entry, one chain of several): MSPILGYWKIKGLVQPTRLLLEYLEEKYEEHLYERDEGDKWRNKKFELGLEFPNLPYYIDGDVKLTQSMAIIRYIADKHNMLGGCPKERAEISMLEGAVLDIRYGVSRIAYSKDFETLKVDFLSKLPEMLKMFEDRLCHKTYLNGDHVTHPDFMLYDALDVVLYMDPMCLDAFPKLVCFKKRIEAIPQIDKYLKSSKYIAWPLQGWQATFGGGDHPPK
Description: as §1

Row | Binder | binding result
11 | B6 | no binding
12 | B7 | no binding
13 | B8 | no binding
14 | B9 | no binding
15 | B10 | no binding
